From the supplement of paper PMC10567573

B1: FCHSD1 (parent)
chain: LEAAEVILEHAHRGEQTTSQVSWE
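Further: lentivirally expressed fusions sorted by FACS into six bins by GFP to DsRed ratio, PSI derived from sequencing read proportions per bin multiplied by bin number.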

Variants of: B1
Test: protein stability index of a GFP-peptide fusion (GPS, HEK-293T) (PSI 1-6); higher = more stable
Settings: c terminus: a fixed tail appended
With LEAAEVILEHAHRGEITTSQVSWE the protein stability index was 3.98. In the case of LEAAEVILEHAHRGESTTSQVSWE, the protein stability index is reported as 4.4. For LEAAEVILEHAHRGERTTSQVSWE, the protein stability index was 4.14. With LEAAEVILEHAHRGEYTTSQVSWE the protein stability index was 3.69. For LEAAEVILEHAHRGEETTSQVSWE, the protein stability index was 4.88. In the case of LEAAEVILEHAHRGEKTTSQVSWE, the protein stability index is reported as 4.24. LEAAEVILEHAHRGEHTTSQVSWE gave a protein stability index of 4.05. In the case of LEAAEVILEHAHRGEFTTSQVSWE, the protein stability index is reported as 3.53. In the case of LEAAEVILEHAHRGELTTSQVSWE, the protein stability index is reported as 2.92. In the case of LEAAEVILEHAHRGEGTTSQVSWE, the protein stability index is reported as 4.42. LEAAEVILEHAHRGEPTTSQVSWE showed a protein stability index of 4.05. LEAAEVILEHAHRGETTTSQVSWE showed a protein stability index of 4.33. In the case of LEAAEVILEHAHRGEMTTSQVSWE, the protein stability index is reported as 3.57. In the case of LEAAEVILEHAHRGEVTTSQVSWE, the protein stability index is reported as 4.13. Variant LEAAEVILEHAHRGENTTSQVSWE has a protein stability index of 3.97. Work on LEAAEVILEHAHRGEQTDSQVSWE yielded a protein stability index of 4.74. LEAAEVILEHAHRGEQTNSQVSWE showed a protein stability index of 3.69. Work on LEAAEVILEHAHRGEQTWSQVSWE yielded a protein stability index of 2.7. LEAAEVILEHAHRGEQTHSQVSWE showed a protein stability index of 4.09. Variant LEAAEVILEHAHRGEQTGSQVSWE has a protein stability index of 4.38. LEAAEVILEHAHRGEQTESQVSWE showed a protein stability index of 4.2. LEAAEVILEHAHRGEQTVSQVSWE gave a protein stability index of 3.88. LEAAEVILEHAHRGEQTFSQVSWE showed a protein stability index of 2.98. In the case of LEAAEVILEHAHRGEQTKSQVSWE, the protein stability index is reported as 4.54. With LEAAEVILEHAHRGEQTASQVSWE the protein stability index was 3.72. Variant LEAAEVILEHAHRGEQTLSQVSWE has a protein stability index of 4.11. LEAAEVILEHAHRGEQTSSQVSWE gave a protein stability index of 4.41. LEAAEVILEHAHRGEQTYSQVSWE gave a protein stability index of 3.21. In the case of LEAAEVILEHAHRGEQTISQVSWE, the protein stability index is reported as 3.65. Variant LEAAEVILEHAHRGEQTPSQVSWE has a protein stability index of 4.33. Work on LEAAEVILEHAHRGEQTRSQVSWE yielded a protein stability index of 3.93. For LEAAEVILEHAHRGEQTCSQVSWE, the protein stability index was 4.45. LEAAEVILEHAHRGEQTMSQVSWE showed a protein stability index of 3.59. In the case of LEAAEVILEHAHRGEQTQSQVSWE, the protein stability index is reported as 3.21. With LEAAEVILEHAHRGEQCTSQVSWE the protein stability index was 4.51. In the case of LEAAEVILEHAHRGEQWTSQVSWE, the protein stability index is reported as 3.54. With LEAAEVILEHAHRGEQSTSQVSWE the protein stability index was 4.77. For LEAAEVILEHAHRGEQQTSQVSWE, the protein stability index was 4.51. In the case of LEAAEVILEHAHRGEQNTSQVSWE, the protein stability index is reported as 4.39. LEAAEVILEHAHRGEQHTSQVSWE showed a protein stability index of 3.99. With LEAAEVILEHAHRGEQVTSQVSWE the protein stability index was 4.37. In the case of LEAAEVILEHAHRGEQATSQVSWE, the protein stability index is reported as 4.2. With LEAAEVILEHAHRGEQETSQVSWE the protein stability index was 5.06. With LEAAEVILEHAHRGEQPTSQVSWE the protein stability index was 4.14. In the case of LEAAEVILEHAHRGEQGTSQVSWE, the protein stability index is reported as 4.84. With LEAAEVILEHAHRGEQLTSQVSWE the protein stability index was 2.78. Work on LEAAEVILEHAHRGEQMTSQVSWE yielded a protein stability index of 3.85. Variant LEAAEVILEHAHRGEQYTSQVSWE has a protein stability index of 3.32. For LEAAEVILEHAHRGEQTTSQRSWE, the protein stability index was 4.18. Variant LEAAEVILEHAHRGEQTTSQESWE has a protein stability index of 5.07. For LEAAEVILEHAHRGEQTTSQISWE, the protein stability index was 3.5. LEAAEVILEHAHRGEQTTSQFSWE showed a protein stability index of 3.3. For LEAAEVILEHAHRGEQTTSQLSWE, the protein stability index was 4.58. Variant LEAAEVILEHAHRGEQTTSQGSWE has a protein stability index of 4.94. In the case of LEAAEVILEHAHRGEQTTSQQSWE, the protein stability index is reported as 4.44. Work on LEAAEVILEHAHRGEQTTSQCSWE yielded a protein stability index of 4.62. In the case of LEAAEVILEHAHRGEQTTSQMSWE, the protein stability index is reported as 4.32. In the case of LEAAEVILEHAHRGEQTTSQNSWE, the protein stability index is reported as 4.92. With LEAAEVILEHAHRGEQTTSQKSWE the protein stability index was 4.68. Variant LEAAEVILEHAHRGEQTTSQPSWE has a protein stability index of 5.55. With LEAAEVILEHAHRGEQTTSQASWE the protein stability index was 5.21. With LEAAEVILEHAHRGEQTTSLVSWE the protein stability index was 4.17. With LEAAEVILEHAHRGEQTTSIVSWE the protein stability index was 4.42. Variant LEAAEVILEHAHRGEQTTSAVSWE has a protein stability index of 3.72. Work on LEAAEVILEHAHRGEQTTSCVSWE yielded a protein stability index of 3.95. Variant LEAAEVILEHAHRGEQTTSVVSWE has a protein stability index of 4.02. Work on LEAAEVILEHAHRGEQTTSFVSWE yielded a protein stability index of 3.76. LEAAEVILEHAHRGEQTTSKVSWE gave a protein stability index of 5.02. Work on LEAAEVILEHAHRGEQTTSTVSWE yielded a protein stability index of 3.86. LEAAEVILEHAHRGEQTTSNVSWE showed a protein stability index of 4.86. In the case of LEAAEVILEHAHRGEQTTSSVSWE, the protein stability index is reported as 4.51. In the case of LEAAEVILEHAHRGEQTTSYVSWE, the protein stability index is reported as 4.26. Work on LEAAEVILEHAHRGEQTTSPVSWE yielded a protein stability index of 4.38. In the case of LEAAEVILEHAHRGEQTTSHVSWE, the protein stability index is reported as 4.2. For LEAAEVILEHAHRGEQTTSDVSWE, the protein stability index was 5.02. In the case of LEAAEVILEHAHRGEQTTSRVSWE, the protein stability index is reported as 4.45. Variant LEAAEVILEHAHRGEQTTSMVSWE has a protein stability index of 4.34. LEAAEVILEHAHRGEQTTHQVSWE showed a protein stability index of 4.14. With LEAAEVILEHAHRGEQTTCQVSWE the protein stability index was 3.3. Variant LEAAEVILEHAHRGEQTTIQVSWE has a protein stability index of 3.02. Work on LEAAEVILEHAHRGEQTTMQVSWE yielded a protein stability index of 3. With LEAAEVILEHAHRGEQTTTQVSWE the protein stability index was 4.21. In the case of LEAAEVILEHAHRGEQTTNQVSWE, the protein stability index is reported as 4.7. LEAAEVILEHAHRGEQTTRQVSWE gave a protein stability index of 4.42. Variant LEAAEVILEHAHRGEQTTLQVSWE has a protein stability index of 2.8. Variant LEAAEVILEHAHRGEQTTVQVSWE has a protein stability index of 2.37. Variant LEAAEVILEHAHRGEQTTPQVSWE has a protein stability index of 4.7. LEAAEVILEHAHRGEQTTFQVSWE showed a protein stability index of 2.97. Variant LEAAEVILEHAHRGEQTTDQVSWE has a protein stability index of 5.11. LEAAEVILEHAHRGEQTTAQVSWE gave a protein stability index of 2.6. For LEAAEVILEHAHRGEQTTYQVSWE, the protein stability index was 2.64. With LEAAEVILEHAHRGEQTTEQVSWE the protein stability index was 4.75. In the case of LEAAEVILEHAHRGEQTTKQVSWE, the protein stability index is reported as 4.45. For LEAAEVILEHAHRGEQTTQQVSWE, the protein stability index was 4.89.
